The values that follow come from paper PMC3592468.

Substrate in the data set: C[C@@H](O)[C@H](N)C(=O)O
Nature of the data set: purified protein. It is filed as biochemical, Saccharomyces cerevisiae. The following applies: 2.5 mM ATP, 2 mM PPi, 10 mM MgCl2, pH 7.5, 30 °C, no tRNA.

B1: ScThrRS (Saccharomyces cerevisiae S288C) (protein)
chain: MSASEAGVTEQVKKLSVKDSSNDAVKPNKKENKKSKQQSLYLDPEPTFIEERIEMFDRLQKEYNDKVASMPRVPLKIVLKDGAVKEATSWETTPMDIAKGISKSLADRLCISKVNGQLWDLDRPFEGEANEEIKLELLDFESDEGKKVFWHSSAHVLGESCECHLGAHICLGPPTDDGFFYEMAVRDSMKDISESPERTVSQADFPGLEGVAKNVIKQKQKFERLVMSKEDLLKMFHYSKYKTYLVQTKVPDGGATTVYRCGKLIDLCVGPHIPHTGRIKAFKLLKNSSCYFLGDATNDSLQRVYGISFPDKKLMDAHLKFLAEASMRDHRKIGKEQELFLFNEMSPGSCFWLPHGTRIYNTLVDLLRTEYRKRGYEEVITPNMYNSKLWETSGHWANYKENMFTFEVEKETFGLKPMNCPGHCLMFKSRERSYRELPWRVADFGVIHRNEFSGALSGLTRVRRFQQDDAHIFCTHDQIESEIENIFNFLQYIYGVFGFEFKMELSTRPEKYVGKIETWDAAESKLESALKKWGGNWEINAGDGAFYGPKIDIMISDALRRWHQCATIQLDFQLPNRFELEFKSKDQDSESYERPVMIHRAILGSVERMTAILTEHFAGKWPFWLSPRQVLVVPVGVKYQGYAEDVRNKLHDAGFYADVDLTGNTLQKKVRNGQMLKYNFIFIVGEQEMNEKSVNIRNRDVMEQQGKNATVSVEEVLKQLRNLKDEKRGDNVLA
Take B1: the Km worked out at 210 ± 20 µM, the kcat was 1.72 ± 0.21 s⁻¹ and the kcat/Km was 8190 M⁻¹ s⁻¹.
